Test results from the RNAGym collection of RNA variant scans (doi:10.7554/elife.90254).

B1: LINE1-full (parent)
chain: UACGUAGGUGGUUUUCCCCUGAUAGUGCUAAGGGGGCCUGGAAGUUUGGACUGGGCAGAGCUCAACACAGCGUGGCAAAGUGGCUGUGGCUAGACUGCCUCUCUGGAUUCCUCGUCACUCAGCAGGGCAUCUCUGAGAGAAAUGCC

Variants of: B1
Assay: self-cleavage, relative activity (ratio to wild type); higher = more cleavage; in vitro, sequencing; the parent is a self-cleaving ribozyme

| Variant | self-cleavage |
| --- | --- |
| U14C U29G | 0.26 |
| U15C A50U | 1 |
| U14C U115A | 1.45 |
| U15C G88A | 0.06 |
| U14G A78G | 1.23 |
| U14G U85A | 0.28 |
| U14C A43U | 1.15 |
| U14C A43G | 1.14 |
| U14C U109A | 1.18 |
| U14C U109G | 0.65 |
| U15C A121G | 1.34 |
| U15C A121U | 1.79 |
| U14C G32A | 0.99 |
| U15C C120A | 1.31 |
| U14C C63A | 0.06 |
| U15C U104G | 1.29 |
| U15C G58A | 0.11 |
| U15C G93A | 0.07 |
| U15C U20G | 0.52 |
| U15C U20C | 1.33 |
| U15C U20A | 1.12 |
| U14C U47A | 1.17 |
| U14C G60A | 0.11 |
| U14G U52A | 1.08 |

| Variant | self-cleavage |
| --- | --- |
| U14C G105C | 1.84 |
| U15C G106C | 1.03 |
| U15C G106A | 1.26 |
| U14C G137A | 0.82 |
| U14G A24G | 0.79 |
| U14C A77U | 1.19 |
| U14C A69U | 0.07 |
| U14C A69C | 0.08 |
| U14C A59G | 0.14 |
| U15C A136C | 1.99 |
| U15C A136G | 1.52 |
| U14G U81A | 1.91 |
| U15C G41U | 0.57 |
| U14C U20A | 0.89 |
| U14C U20G | 0.9 |
| U15A A121C | 0.82 |
| U15A A121U | 1.35 |
| U14C G40U | 1.06 |
| U14C G40A | 0.85 |
| U15A U39A | 0.85 |
| U15C G34U | 1.65 |
| U15C G34A | 0.78 |
| U15C C63U | 0.43 |
| U14C U102A | 1.67 |

| Variant | self-cleavage |
| --- | --- |
| U15A U143C | 1.26 |
| U15A U81A | 1.56 |
| U15A U81C | 1.14 |
| U14G U132C | 1.13 |
| U14G A50U | 1.14 |
| U14C C28A | 0.74 |
| U14C C28U | 0.8 |
| U15C A24G | 1.13 |
| U15C A24C | 1.84 |
| U15C A24U | 1.08 |
| U15C U23G | 1.31 |
| U14C A64G | 0.33 |
| U15C U100G | 1.84 |
| U15C U100A | 0.62 |
| U15C A129U | 1.06 |
| U14C U52C | 1.21 |
| U14C U52G | 1.51 |
| U15A C133U | 1.31 |
| U14C G49U | 1.21 |
| U14C G72A | 1.23 |
| U14C U119C | 1.29 |
| U15C G97A | 0.06 |
| U15C U73C | 1.8 |
| U15C U73A | 1.68 |

| Variant | self-cleavage |
| --- | --- |
| U15A U130G | 1.09 |
| U14C G89U | 0.05 |
| U14C A79G | 0.84 |
| U15C U115C | 1.68 |
| U15A U62A | 0.04 |
| U15A U91A | 0.77 |
| U14C U62A | 0.1 |
| U14C U62C | 0.09 |
| U14C A138C | 1.56 |
| U14C A138G | 1.23 |
| U14C A138U | 0.98 |
| U14G U29C | 1.6 |
| U15A C103A | 1.27 |
| U14C A65G | 0.12 |
| U14C A142C | 1.87 |
| U15A A136G | 1.26 |
| U15A U85A | 0.11 |
| U15A U85G | 0.28 |
| U15G A138G | 0.53 |
| U15C C51U | 1.26 |
| U14C U91A | 0.91 |
| U15C C131U | 2.51 |
| U15C C131A | 1.74 |
| U15C G21A | 1.11 |

| Variant | self-cleavage |
| --- | --- |
| U14C A50G | 1.08 |
| U15C A67C | 0.07 |
| U15C A67U | 0.17 |
| U15A U134A | 0.87 |
| U15A G55C | 0.15 |
| U15C G53A | 1.34 |
| U15A G86A | 0.07 |
| U15C A140C | 1.12 |
| U15C A140G | 1.59 |
| U14C G106U | 0.66 |
| U14C U73G | 1.05 |
| U15A A65U | 0.29 |
| U15A U132A | 0.45 |
| U15C G49U | 0.94 |
| U14C U85C | 0.23 |
| U14C U85A | 0.08 |
| U15C G32U | 1.15 |
| U15A C110A | 1.16 |
| U15A U109A | 0.47 |
| U15A U109C | 0.86 |
| U15C G86A | 0.06 |
| U15C U102A | 0.19 |
| U15C U102G | 0.8 |
| U14C A107U | 1.2 |

| Variant | self-cleavage |
| --- | --- |
| U14C A107G | 1.22 |
| U15C G80A | 1.82 |
| U14C C116U | 1.14 |
| U14C G70A | 0.26 |
| U15C U112C | 1.37 |
| U15C U112A | 1.64 |
| U14C U132A | 0.87 |
| U14C U132C | 1.43 |
| U15C G54A | 0.74 |
| U15C A43G | 1.4 |
| U15C A43U | 1.09 |
| U14C U108A | 0.98 |
| U14C U81C | 1.43 |
| U15C A117G | 1.83 |
| U15C A117C | 2.07 |
| U15A U29A | 0.38 |
| U15A G36U | 1.31 |
| U15A A67G | 0.41 |
| U15A A141G | 1.35 |
| U15A A141U | 1.07 |
| U15A G125U | 0.89 |
| U15C U26C | 1.33 |
| U15A C38A | 0.77 |
| U15C U46G | 1.15 |

| Variant | self-cleavage |
| --- | --- |
| U15C U46A | 1.41 |
| U14C U96C | 0.18 |
| U14C U134A | 0.84 |
| U14C U134C | 1.34 |
| U15C A64U | 0.66 |
| U15C A79G | 1.18 |
| U15C A79C | 1.84 |
| U14C C90A | 0 |
| U15C G135U | 1.21 |
| U15A C95U | 0.41 |
| U15C U132A | 1.89 |
| U15C U132C | 1.47 |
| U14C A57G | 0.89 |
| U14C A57C | 0.36 |
| U15G A124U | 0.58 |
| U14G A69G | 0.42 |
| U14C C66U | 0.03 |
| U15C C101G | 1.31 |
| U15A U23A | 0.76 |
| U15A U23C | 1.17 |
| U14C C111A | 1.2 |
| U14C C111U | 1.14 |
| U14C G36C | 1.41 |
